According to patent US20200407445A1 (ITEOS THERAPEUTICS, published 2020):
Positions count from the first letter of the chain named.

B1: anti-TIGIT antibody clone 29494 (IgG) (antibody, V domains shown)
VH: QVQLQESGPGLVKPSETLSLTCTVSGGSISSGSYYLAWIRQPPGKGLEWIGSIFRSGSTYYNPSLESRVTISVDTSKNQFSLKLSSVTAADTAVYYCAIEGANFKDFGYVAFDIWGQGTMVTVSS
VL: EIVMTQSPATLSVSPGERATLSCRASQSVSSNLAWYQQKPGQAPRLLIYGASTRATGIPARFSGSGSGTEFTLTISSLQSEDFAVYYCQQSPPWPRTFGGGTKVEIK
B2: anti-TIGIT antibody clone 31288 (IgG) (antibody, V domains shown)
VH: B1 VH with V2L, M120T
VL: B1 VL
notes: human IgG
B3: anti-TIGIT antibody clone 29520 (IgG) (antibody, V domains shown)
VH: QVQLVESGGGLVQPGRSLRLSCAASGFTFRDYAMHWVRQAPGKGLEWVSGITWNSGLIGYADSVKGRFTISRDNAKNSLYLQMNSLRAEDTALYYCAKPVPRLRGLDVWGQGTMVTVSS
VL: DIQLTQSPSSVSASVGDRVTITCRASQGISSWLAWYQQKPGKAPKLLIYGASSLQSGVPSRFSGSGSGTDFTLTISSLQPEDFATYYCQQAFYLPWTFGGGTKVEIK
B4: anti-TIGIT antibody clone 29527 (IgG) (antibody, V domains shown)
VH: QVQLVESGGGVVQPGRSLRLSCAASGFTFSSSYMHWVRQAPGKGLEWVAVIGADGSNKYYADSVEGRFTISRDNSKNTLYLQMNSLRAEDTALYYCAKPVPRRRGLDVWGQGTMVTVSS
VL: B3 VL

Key:
[1] = target: T1, human TIGIT expressed on cells (human, UniProt Q495A1 22-244); assay: cell-based or functional assay
T1 sequence (looked up): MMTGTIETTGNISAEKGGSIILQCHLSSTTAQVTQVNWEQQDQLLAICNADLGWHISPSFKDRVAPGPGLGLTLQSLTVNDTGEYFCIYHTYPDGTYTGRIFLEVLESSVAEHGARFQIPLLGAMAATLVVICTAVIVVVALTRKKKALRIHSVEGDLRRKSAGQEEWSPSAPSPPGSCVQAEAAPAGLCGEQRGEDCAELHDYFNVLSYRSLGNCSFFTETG

[2] = target: T1, human TIGIT expressed on cells; assay: cell-based or functional assay; remark: listed apart in the source
Human TIGIT-Fc = target: T2, Human TIGIT-Fc (human, UniProt Q495A1 22-141); assay: ForteBio BLI, IgG KD, avid
T2 construct: bought (Creative Biomart); also called TIGIT-Fc antigen; TIGIT-Fc fusion antigen; not shown: Fc part
T2 sequence (looked up): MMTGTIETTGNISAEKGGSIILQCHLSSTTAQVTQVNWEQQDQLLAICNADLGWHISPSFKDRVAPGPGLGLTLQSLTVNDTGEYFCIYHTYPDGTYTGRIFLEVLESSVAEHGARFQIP
Protocol: Briefly, ForteBio affinity measurements were performed by loading IgGs on-line onto AHQ sensors. Sensors were equilibrated off-line in assay buffer for 30 min and then monitored on-line for 60 seconds for baseline establishment. Sensors with loaded IgGs were exposed to 100 nM antigen (human TIGIT-Fc, human TIGIT-His or cyno TIGIT-Fc) for 5 minutes, afterwards they were transferred to assay buffer for 5 min for off-rate measurement. Kinetics were analyzed using the 1:1 binding model.

[3] = target: T1, human TIGIT expressed on cells; assay: flow cytometry on Jurkat-hTIGIT, FIG. 9
Protocol: (§1) Antibodies were incubated with the cells for 20 min at 4° C. in FACS buffer. […] Geometric mean fluorecence intensity was analysed using LSR BD Fortessa. Cell binding was recorded as the median florescence intensity of PE on the transfected line compared to the un-transfected line for each antibody (Table 3).

Human TIGIT-His [4] = target: T3, Human TIGIT-His (human, UniProt Q495A1 22-141, biotinylated in the ForteBio Fab assay); assay: Biacore, IgG captured, TIGIT-His in solution
T3 construct: bought (Creative Biomart); also called Biotinylated Human TIGIT HIS; TIGIT-His monomer; not shown: His tag
T3 sequence (looked up): T2 sequence (looked up)
Protocol: (§2) Biosensor analysis was conducted at 25° C. in a HBS-EP buffer system (10 mM HEPES pH 7.3, 150 mM NaCl, 3 mM EDTA, 0.05% Surfactant P20) using a Biacore 8K optical biosensor docked with a CMS sensor chip (GE Healthcare, Marlboro, Mass.). The sample hotel was maintained at 8° C. […] This surface type provided a format for reproducibly capturing fresh analysis antibody after each regeneration step. Flow cell 2 was used to analyze captured antibody (60-90 RU) while flow cell 1 was used as a reference flow cell. […] Each of the antigen sample concentrations were run as a single replicate. Two blank (buffer) injections also were run and used to assess and subtract system artefacts. The association (300 s) and dissociation (600 s) phases for all antigen concentrations were performed at a flow rate of 30 uL/min. The surface was regenerated with three sequential injections (15 s, 15 s and 60 s) of 10 mM glycine, pH 1.5 at a flow rate of 30 uL/min. The data was aligned, double referenced, and fit to a 1:1 binding model using Biacore 8K Evaluation Software, version 1.0.

Human TIGIT-His [5] = target: T3, Human TIGIT-His; assay: Biacore 8K, IgG on CM5 chip, human TIGIT-HIS in solution
Protocol: as §2

Human TIGIT-His [6] = target: T3, Human TIGIT-His; assay: MSD-SET, monovalent (Fab or mAb titrated, not said which)
Protocol: (§3) Briefly, solution equilibrium titrations (SET) were performed in PBS+0.1% IgG-Free BSA (PBSF) with antigen (TIGIT-His monomer) held constant at 10-100 pM and incubated with 3- to 5-fold serial dilutions of Fab or mAbs starting at 10 pM-10 nM. Antibodies (20 nM in PBS) were coated onto standard bind MSD-ECL plates overnight at 4° C. or at room temperature for 30 min. Plates were then blocked by BSA for 30 min with shaking at 700 rpm, followed by three washes with wash buffer (PBSF+0.05% Tween 20). SET samples were applied and incubated on the plates for 150s with shaking at 700 rpm followed by one wash. Antigen captured on a plate was detected with 250 ng/mL sulfotag-labeled streptavidin in PBSF by incubation on the plate for 3 min. The plates were washed three times with wash buffer and then read on the MSD Sector Imager 2400 instrument using 1× Read Buffer T with surfactant. The percent free antigen was plotted as a function of titrated antibody in Prism and fit to a quadratic equation to extract the KD. To improve throughput, liquid handling robots were used throughout MSD-SET experiments, including SET sample preparation.

[7] = target: T1, human TIGIT expressed on cells; assay: flow cytometry, 100 nM Ab, Jurkat-hTIGIT vs untransfected
Protocol: as §1

[8] = target: T4, mouse TIGIT expressed on cells (mouse, UniProt P86176 29-249); assay: flow cytometry, 100 nM Ab, Jurkat-mTIGIT vs untransfected
T4 construct: whole, on cells; on Jurkat cells engineered to express mouse TIGIT; also called mTIGIT; Jurkat-mTIGIT
T4 sequence (looked up): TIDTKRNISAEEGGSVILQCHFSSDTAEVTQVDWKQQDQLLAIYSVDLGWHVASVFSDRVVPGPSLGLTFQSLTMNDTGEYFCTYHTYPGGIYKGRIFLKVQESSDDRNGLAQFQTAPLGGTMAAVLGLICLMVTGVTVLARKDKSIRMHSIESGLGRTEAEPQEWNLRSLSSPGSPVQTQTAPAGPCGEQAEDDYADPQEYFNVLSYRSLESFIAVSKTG
Protocol: as §1

Human TIGIT-His [9] = target: T3, Human TIGIT-His; assay: MSD-SET, monovalent (Fab or mAb titrated, not said which); remark: listed apart in the source
Protocol: as §3

[10] = target: T1, human TIGIT expressed on cells; assay: flow cytometry, competition with CD155-His (5 ug/ml) on Jurkat-hTIGIT
[11] = target: T5, cynomolgus TIGIT on primary CD8+ T cells (Macaca fascicularis (cynomolgus), UniProt A0A7N9I9V4 89-312); assay: flow cytometry, cynomolgus CD69+CD8+ T cells, FIG. 11
T5 construct: whole, on cells
T5 sequence (A0A7N9I9V4 entry or part of it): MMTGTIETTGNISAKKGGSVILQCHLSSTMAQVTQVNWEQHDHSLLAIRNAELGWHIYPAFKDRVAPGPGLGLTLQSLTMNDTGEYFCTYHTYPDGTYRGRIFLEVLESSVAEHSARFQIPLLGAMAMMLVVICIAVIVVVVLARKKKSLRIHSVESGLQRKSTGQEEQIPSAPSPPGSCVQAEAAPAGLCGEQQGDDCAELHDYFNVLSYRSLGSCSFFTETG
Protocol: Isolated PBMCs from Macaca fascicularis were obtained from BioPRIM. Cells were thawed and stimulated using the T cell activation/expansion kit for non-human primate (Miltenyi Biotec) at 1:2 (bead:cell ratio) following the manufacturer's specifications. The next day, cells were collected, counted and distributed at 5×10^4 cells per well. […] Then, cells were washed and incubated with the following antibodies and LVD mix for data illustrated in FIGS. 11A and 11B: anti-CD4-PercP-Cy5.5 (clone A161A1, BioLegend 357414); anti-CD8-BV510 (clone SK1, BD Bioscience 563919), CD69-APC-Cy7 (Clone FN50, BioLegend, 310914) and LVD efluor 520 (eBioscience 65-0867-14). Stained cells were analysed by FACS using BD LSR Fortessa. The EC50 value of binding was calculated using the % of positive TIGIT stained cells gated on LVD-CD69+CD8+ T cells.

[12] = target: T1, human TIGIT expressed on cells; assay: flow cytometry, total human primary CD8+ T cells, % TIGIT stained cells, FIG. 10A

Binder	EC50 for increase in IFNg secretion by human primary CD8 T cells, FIG. 13B [1] [nM]	EC50 of Jurkat-hTIGIT cell activation (luciferase), FIG. 12B [1] [nM]	increase of IFNg secretion over isotype control, human primary CD8+ T cells + CHO-TCR-CD155 [1] [fold]	Induction over Isotype control (fold change), luciferase, Jurkat-hTIGIT + CHO-TCR-CD155, 133 nM [2] [fold]	Kd (Human TIGIT-Fc) [nM]	EC50 [3] [nM]	Kd (Human TIGIT-His [4]) [nM]	Kd (Human TIGIT-His [5]) [nM]	Kd (Human TIGIT-His [6]) [nM]	FON (Fold Over Negative) [7] [fold]	FON (Fold Over Negative) [8] [fold]	Kd (Human TIGIT-His [9]) [nM]	IC50 [10] [nM]	EC50 [11] [nM]	EC50 [12] [nM]
B1	6.1	4.4	5.8	3.42	0.376	0.07	0.27	0.27	0.07	164	511	0.07	0.07		
B2							0.192	0.192							
B3	11.1	2.3	5.4	2.52	0.384	0.119	0.716	0.716	0.21	166	535	0.21	0.102	1.73	0.181
B4	5.1	32	4.5	2.96	0.35	0.05		1.2	0.64	142	414	0.64	0.078	0.378	0.253
